Measurements reported in patent US12467929.

What was measured:
[1] = target: recombinant UBE3A protein (Homo sapiens (Human)) (UniProt Q05086); assay: 2-step Simoa; capture GTX; UBE3A 500 ng/ml
[2] = target: recombinant UBE3A protein (Homo sapiens (Human)) (UniProt Q05086); assay: 3-step Simoa; capture GTX; UBE3A 500 ng/ml
[3] = target: recombinant UBE3A protein (Homo sapiens (Human)) (UniProt Q05086); assay: 3-step Simoa; capture GTX; UBE3A 31.3 ng/ml
[4] = target: recombinant UBE3A protein (Homo sapiens (Human)) (UniProt Q05086); assay: 2-step Simoa; capture GTX; UBE3A 0.488 ng/ml
[5] = target: recombinant UBE3A protein (Homo sapiens (Human)) (UniProt Q05086); assay: Simoa; capture GTX; SBG 150 pm; UBE3A 20.0 ng/ml
[6] = target: recombinant UBE3A protein (Homo sapiens (Human)) (UniProt Q05086); assay: Simoa; capture GTX; SBG 75 pm; UBE3A 0.160 ng/ml
[7] = target: recombinant UBE3A protein (Homo sapiens (Human)) (UniProt Q05086); assay: Simoa; capture GTX; SBG 150 pm; UBE3A 0.800 ng/ml
[8] = target: recombinant UBE3A protein (Homo sapiens (Human)) (UniProt Q05086); assay: Simoa; capture GTX; 3E5 0.1 ug/ml; UBE3A 4.00 ng/ml
[9] = target: recombinant UBE3A protein (Homo sapiens (Human)) (UniProt Q05086); assay: Simoa; capture GTX; 3E5 0.8 ug/ml; UBE3A 20.0 ng/ml
[10] = target: recombinant UBE3A protein (Homo sapiens (Human)) (UniProt Q05086); assay: Simoa; capture GTX; 3E5 0.2 ug/ml; UBE3A 0.0320 ng/ml
[11] = target: recombinant UBE3A protein (Homo sapiens (Human)) (UniProt Q05086); assay: Simoa; capture GTX; 3E5 0.2 ug/ml; UBE3A 0.00640 ng/ml
[12] = target: recombinant UBE3A protein (Homo sapiens (Human)) (UniProt Q05086); assay: 3-step Simoa, 120 min bead step; capture GTX; UBE3A 100 ng/ml
[13] = target: recombinant UBE3A protein (Homo sapiens (Human)) (UniProt Q05086); assay: Simoa head-to-head, Table 10; capture MS 2F6; UBE3A 4.00 ng/ml
[14] = target: recombinant UBE3A protein (Homo sapiens (Human)) (UniProt Q05086); assay: Simoa head-to-head, Table 11; capture MS 2F6; UBE3A 4.00 ng/ml
[15] = target: recombinant UBE3A protein (Homo sapiens (Human)) (UniProt Q05086); assay: 3-step Simoa, 120 min bead step; capture GTX; UBE3A 0.160 ng/ml
[16] = target: recombinant UBE3A protein (Homo sapiens (Human)) (UniProt Q05086); assay: Simoa; capture GTX + helper beads; 3E5 0.1 ug/ml; UBE3A 20.0 ng/ml
[17] = target: recombinant UBE3A protein (Homo sapiens (Human)) (UniProt Q05086); assay: Simoa; capture GTX + helper beads; 3E5 0.2 ug/ml; UBE3A 4.00 ng/ml
[18] = target: recombinant UBE3A protein (Homo sapiens (Human)) (UniProt Q05086); assay: Simoa; capture GTX + helper beads; 3E5 0.4 ug/ml; UBE3A 0.00640 ng/ml
[19] = target: recombinant UBE3A protein (Homo sapiens (Human)) (UniProt Q05086); assay: Simoa; capture GTX, no helper beads; 3E5 0.2 ug/ml; UBE3A 0.800 ng/ml
[20] = target: recombinant UBE3A protein (Homo sapiens (Human)) (UniProt Q05086); assay: Simoa; capture GTX, no helper beads; 3E5 0.4 ug/ml; UBE3A 0.800 ng/ml
[21] = target: recombinant UBE3A protein (Homo sapiens (Human)) (UniProt Q05086); assay: Simoa; capture GTX, no helper beads; 3E5 0.2 ug/ml; UBE3A 0.00640 ng/ml

UniProt Q05086, sequence (Q05086 whole entry): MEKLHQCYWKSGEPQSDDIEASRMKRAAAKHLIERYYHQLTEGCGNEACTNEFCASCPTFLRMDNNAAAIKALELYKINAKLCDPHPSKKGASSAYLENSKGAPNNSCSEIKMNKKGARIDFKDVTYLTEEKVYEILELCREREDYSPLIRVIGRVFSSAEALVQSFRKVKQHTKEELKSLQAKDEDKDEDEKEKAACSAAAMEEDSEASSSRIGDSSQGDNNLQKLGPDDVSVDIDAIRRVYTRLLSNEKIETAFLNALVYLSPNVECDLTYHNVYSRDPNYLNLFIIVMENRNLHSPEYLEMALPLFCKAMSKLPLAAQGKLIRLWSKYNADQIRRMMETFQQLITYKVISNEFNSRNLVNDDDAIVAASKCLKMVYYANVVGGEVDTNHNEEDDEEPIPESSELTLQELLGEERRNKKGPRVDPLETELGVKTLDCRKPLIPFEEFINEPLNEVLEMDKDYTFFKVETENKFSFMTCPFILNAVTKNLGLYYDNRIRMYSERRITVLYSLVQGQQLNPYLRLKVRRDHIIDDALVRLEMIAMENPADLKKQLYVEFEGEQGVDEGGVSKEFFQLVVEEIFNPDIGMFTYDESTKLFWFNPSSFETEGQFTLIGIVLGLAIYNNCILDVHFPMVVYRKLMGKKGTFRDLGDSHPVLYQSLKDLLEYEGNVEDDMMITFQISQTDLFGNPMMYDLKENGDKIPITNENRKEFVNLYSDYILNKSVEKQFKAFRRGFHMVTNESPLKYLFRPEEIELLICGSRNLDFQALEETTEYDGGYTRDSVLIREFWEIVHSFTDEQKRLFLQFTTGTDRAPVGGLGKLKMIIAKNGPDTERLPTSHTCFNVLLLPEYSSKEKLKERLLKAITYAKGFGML

Substance: NB500-240 (Novus) (antibody)
- AEB1 [1]: 0.303
- AEB2 [1]: 0.308
- Ave AEB [1]: 0.305
- Signal to Background [1]: 93.4
- AEB1 [2]: 0.229
- AEB2 [2]: 0.218
- Ave AEB [2]: 0.224
- Signal to Background [2]: 102
- AEB1 [3]: 0.0425
- AEB2 [3]: 0.046
- Ave AEB [3]: 0.0443
- Signal to Background [3]: 20.3
- AEB1 [4]: 0.0073
- AEB2 [4]: 0.0069
- Ave AEB [4]: 0.0071
- Signal to Background [4]: 2.16

Substance: anti-UBE3A antibody 3E5 (SAB1404508-100 ug, Millipore-Sigma)
- AEB1 [5]: 5.87
- AEB2 [5]: 5.57
- AEB3 [5]: 5.72
- Average AEB [5]: 5.72
- Signal to Background [5]: 431
- AEB1 [6]: 0.0299
- AEB2 [6]: 0.0294
- AEB3 [6]: 0.03
- Average AEB [6]: 0.0298
- Signal to Background [6]: 6.82
- AEB1 [7]: 0.271
- AEB2 [7]: 0.285
- AEB3 [7]: 0.279
- Average AEB [7]: 0.278
- Signal to Background [7]: 21
- AEB1 [8]: 0.848
- AEB2 [8]: 0.891
- AEB3 [8]: 0.878
- Average AEB [8]: 0.873
- Signal to Background [8]: 45.3
- AEB1 [9]: 9.16
- AEB2 [9]: 10.3
- AEB3 [9]: 9.37
- Average AEB [9]: 9.62
- Signal to Background [9]: 78.5
- AEB1 [10]: 0.0619
- AEB2 [10]: 0.0621
- AEB3 [10]: 0.0587
- Average AEB [10]: 0.0609
- Signal to Background [10]: 1.55
- AEB1 [11]: 0.0421
- AEB2 [11]: 0.0466
- AEB3 [11]: 0.0433
- Average AEB [11]: 0.044
- Signal to Background [11]: 1.12
- AEB1 [12]: 7.86
- AEB2 [12]: 8.12
- Ave AEB [12]: 7.99
- Signal to Background [12]: 4690
- AEB1 [13]: 0.132
- AEB2 [13]: 0.127
- Ave AEB [13]: 0.13
- Signal to Background [13]: 9.58
- AEB1 [14]: 0.0868
- AEB2 [14]: 0.0803
- Ave AEB [14]: 0.0836
- Signal to Background [14]: 22.1
- AEB1 [15]: 0.0398
- AEB2 [15]: 0.0389
- Ave AEB [15]: 0.0393
- Signal to Background [15]: 23.1
- AEB1 [16]: 3.37
- AEB2 [16]: 3.48
- Average AEB [16]: 3.42
- Signal to Background [16]: 597
- AEB1 [17]: 0.892
- AEB2 [17]: 0.846
- Average AEB [17]: 0.869
- Signal to Background [17]: 89.8
- AEB1 [18]: 0.0326
- AEB2 [18]: 0.0263
- Average AEB [18]: 0.0294
- Signal to Background [18]: 1.51
- AEB1 [19]: 0.25
- AEB2 [19]: 0.247
- Average AEB [19]: 0.249
- Signal to Background [19]: 25.7
- AEB1 [20]: 0.335
- AEB2 [20]: 0.338
- Average AEB [20]: 0.337
- Signal to Background [20]: 17.2
- AEB2 [21]: 0.012
- Average AEB [21]: 0.012
- Signal to Background [21]: 1.24
